Reference: PMC3237003 (Toxins, 2011)

Columns and labels:
[1] = target: T1, staphylococcal enterotoxin B (SEB) (Staphylococcus aureus, strain , UniProt P01552); experiment: Luminex direct binding (microsphere fluorescence immunoassay); details: both partners purified
T1 construct: source: bought: Toxin Technology, Inc

[2] = target: bovine serum albumin (BSA) (Bos taurus, UniProt P02769); experiment: as above; details: both partners purified
Sequence of bovine serum albumin (BSA) (P02769 25-607): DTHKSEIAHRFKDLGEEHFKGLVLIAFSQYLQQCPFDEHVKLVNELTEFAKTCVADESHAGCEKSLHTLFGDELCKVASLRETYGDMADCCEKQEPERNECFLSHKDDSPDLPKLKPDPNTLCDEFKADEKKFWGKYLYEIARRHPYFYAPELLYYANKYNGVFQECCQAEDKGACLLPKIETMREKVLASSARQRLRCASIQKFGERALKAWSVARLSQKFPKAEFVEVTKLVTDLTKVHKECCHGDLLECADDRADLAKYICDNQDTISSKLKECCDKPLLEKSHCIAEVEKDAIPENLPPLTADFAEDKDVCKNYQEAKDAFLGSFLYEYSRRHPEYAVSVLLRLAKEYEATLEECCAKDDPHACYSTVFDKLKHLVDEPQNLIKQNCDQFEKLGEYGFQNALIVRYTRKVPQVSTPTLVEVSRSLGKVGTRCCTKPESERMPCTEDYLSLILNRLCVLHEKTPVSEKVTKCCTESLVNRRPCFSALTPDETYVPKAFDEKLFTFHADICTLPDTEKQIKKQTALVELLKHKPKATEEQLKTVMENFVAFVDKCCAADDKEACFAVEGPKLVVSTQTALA

T1 sequence (P01552 28-266): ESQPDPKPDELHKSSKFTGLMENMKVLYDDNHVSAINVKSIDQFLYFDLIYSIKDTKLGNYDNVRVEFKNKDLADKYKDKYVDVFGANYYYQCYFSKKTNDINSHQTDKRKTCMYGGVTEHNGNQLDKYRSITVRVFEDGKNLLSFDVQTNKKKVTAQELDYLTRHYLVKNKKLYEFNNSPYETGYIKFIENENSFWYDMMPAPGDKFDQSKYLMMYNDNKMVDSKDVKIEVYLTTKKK

B1: sdAb Abr2 (VHH)
VHH: DVQLQASGGGLVQAGGSLVLSCTASGRSVSSLAMGWLRQVPGKERELVGSISLSGGRTYYADSMKGRFTISKDNAKNTVALQMNSLRPEDTAVYYCAARDAARDYAPLNFDTWGQGTQVTVSS
notes: source: E. coli Rosetta, soluble sdAb expression vector
binding result [1]: no binding | binding result [2]: no binding

B2: sdAb Abr5 (VHH)
VHH: EVQLQASGGGLVQAGGSLRLSCVVSGLSVGLNPVAWYRQAPGQQRDWVARMSMRGLTDYPDSLKGRAIISRDNAKNTVSLQMDSLKPEDTAVYFCKVGLSYWGQGTQVTVSS
notes: as for B1
binding result [1]: no binding | binding result [2]: no binding

B3: sdAb Abr1 (VHH)
VHH: EVQLQASGGGLVQAGGSLRLSCAASGSDGSLEIMGWYRQAPGKQRELVARATSGGLKNYADSVKGRFTISGDLDKNTVYLQMNSLQPEDTGVYVCHLGVVASTYRDYWGQGTQVTVSS
notes: as for B1
binding result [1]: no binding | binding result [2]: no binding
